In the supplement of paper PMC12042874 one finds amyloid nucleation score data, which are given here for 132 substances.

± gives the uncertainty stated by the source.

This data set in a line: amyloid nucleation score (Sup35N fusion, yeast selection) (log enrichment); library NNK3; higher = more nucleation; inactive = no reads after selection. A digest of the protocol: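 The nucleation score, computed with DiMSum, is the log enrichment of output over input reads, centred on the mode score of non-aggregating sequences. Sequences with under 100 input reads were dropped. Reads were generated by Illumina sequencing of plasmid inserts from psi-negative yeast with Sup35N fused to peptides of 20 random codons, induced with 100 μM copper sulfate for 24 hours and grown 7 days at 30°C on medium lacking adenine and uracil.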
Regarding SRITNHDD, the amyloid nucleation score entry is “inactive”.

As for CDIISMALEPQVCTEYDLQR, the amyloid nucleation score amounted to 1.38 ± 0.1. The substance IWKGCSACFGKD returned an amyloid nucleation score of -0.222 ± 1.2. In the case of HDARGLIIFARSHSAESRVR it was “inactive”. In the case of THLIIHCLCLFERVFITHVA it was “inactive”.

As for RKIHLLGHWLFRSMYRRRFW, the amyloid nucleation score result is “inactive”. Under LSSWEIVSSLSHWNVYVIAR stands “inactive”.

Regarding RNLLRSTLKGYFWYSCNVDV, the amyloid nucleation score result was “inactive”.

With CHKVLWSSVKTVDFMLSNMG, the amyloid nucleation score result is “inactive”.

As for ICYPLFFCNAEWRFEEPCVL, the amyloid nucleation score was 2.57 ± 0.075. Consider SLCNGCMIK, for which the amyloid nucleation score result was “inactive”.

As to LTIRPFEVGRESESGFVLIS, the amyloid nucleation score entry is “inactive”. For QRLVINDMMPLFFWHSNMGD, the amyloid nucleation score entry is “inactive”. In the case of VFDSCRTFSMYTDLLGWEWR it was “inactive”; in that of SCYRVNLLGVYWRVMVDVLV, “inactive”; in that of DKFLFLCMG, “inactive”.

As for QYDIVLCGQWYGLSKGLRYS, the amyloid nucleation score result is “inactive”. Turning to LLEIDVGISRCLGVTSETFW, the amyloid nucleation score entry was “inactive”. In the case of LSLTYVSPHA it was 0.968 ± 0.17; in that of FCRPLSCRSIWCHLLPTHLR, “inactive”; in that of MMVMWD, “inactive”. As for LQLLENQSNAIYWHGGNESD, the amyloid nucleation score result was “inactive”.

As for YQSKQRVGSS, the amyloid nucleation score result was “inactive”. Under SLRDRKDRWGCQMLRRWVDF stands “inactive”; under ISPYIIVPY, “inactive”; under VTQESNHATIAVLM, “inactive”. Regarding CALSHYGKFDYYPSFVSFKQ, the amyloid nucleation score result was “inactive”. Consider RQCGVVIKFLMISTLISSIA, for which the amyloid nucleation score entry was “inactive”.

Consider FFQESYLGMDLYELSTYNNV, for which the amyloid nucleation score result is “inactive”. As to KDTQWALYRNL, the amyloid nucleation score result is “inactive”.

Consider GGTVFSNCVGVRRLNMYINY, for which the amyloid nucleation score result was “inactive”. In the case of VMIVRLYVIYPMFEVKP it was “inactive”. As to CCLTIGSKPIYHCWQLGIMA, the amyloid nucleation score entry is “inactive”. For TMLWYLDDSSSNIREKSHGM, the amyloid nucleation score result was “inactive”. Under IVTTQHMNGRSDYWITYSSV stands -0.447 ± 0.74; under TLLLL, “inactive”; under TKGLDILDGVCVGCLRCQVD, “inactive”. On to LNDGALDGQSTDALMGMEMR, for which the amyloid nucleation score entry was “inactive”. Under RYKGFINVLC stands “inactive”. In the case of MFSPQSNRFSSFGNNSITGH it was “inactive”; in that of TVGCHSGPELMFQSWNSRSL, “inactive”.

Regarding FLAGDWSKGFNKYYTYYISK, the amyloid nucleation score entry is “inactive”.

For the substance ESRSFCLNCQGWVSSEA, the amyloid nucleation score result is “inactive”.

On to WLSNREVFKMYIRLVQLAWL, for which the amyloid nucleation score result is “inactive”.

For the substance ISMSCNYSW, the amyloid nucleation score entry is “inactive”. Under FSIAMFQANSGYASR stands 1.25 ± 0.14; under HYNVFGGRLSSSRNMYKGVY, “inactive”.

As for LVIVFCMVFLTFIF, the amyloid nucleation score was found to be 0.545 ± 0.13.

For NWFPGTRGRLLQVTLGYLVD, the amyloid nucleation score entry is “inactive”. Under REYPYDMYSHLSLFDARHPG stands “inactive”; under FTWYRR, “inactive”.

Consider IFCKPWGSSFRIEPVAGTWI, for which the amyloid nucleation score result was “inactive”. Under IRNALIYIVISLKFGRRGCY stands 0.107 ± 0.28; under NFRLYLLNCN, “inactive”; under RIYGHVLSRDANFVRLWVGT, “inactive”.

With VVLWWS, the amyloid nucleation score result is “inactive”. In the case of YLCWAFDTMVSGDRGPRSC it was -0.102 ± 0.81; in that of KKHIVY, “inactive”; in that of IDVYRFRKGA, “inactive”. Under MKFRLTSSRQSDEAHFMWLT stands 1.28 ± 0.085. Under FPSIFCPCFLTIYMFGWIVS stands “inactive”; under GAFRTFYMLMWSYLCISGSV, “inactive”.

In the case of DSGLFKYSYGLWEKLLFYRM, the amyloid nucleation score entry is “inactive”. Regarding CMHGRGMWMNIACAFSCRQF, the amyloid nucleation score is 0.063 ± 0.69. On to VIIPNFWLFEGLRAGKRRG, for which the amyloid nucleation score result is “inactive”.

With WIFENMSYIRKICQWCKSYV, the amyloid nucleation score result is “inactive”. The substance SSYSWMGVFIYLDRIINYTH showed an amyloid nucleation score of -0.339 ± 0.63. In the case of DDDRGGSTMTATHRRRMWHL it was “inactive”.

Regarding FCFSYSYAYFCHIYGCGSNR, the amyloid nucleation score is -0.281 ± 0.36.

Regarding IAVPRWKDSDTQKVV, the amyloid nucleation score entry was “inactive”. In the case of STRMRYICCSCLL it was 2.99 ± 0.078; in that of HSAVE, “inactive”; in that of KISGNFKILDWVGNFSDGNS, “inactive”. In the case of PEVCEPLLGFLCFCPVNSVP it was “inactive”. For FHYGLSWLSSTKGSYVFYIG, the amyloid nucleation score result was “inactive”.

For KWGIGMGPSHSGLISWGHNE, the amyloid nucleation score is -0.448 ± 1.8.

On to YVWLGDLMSVRCYYWVTW, for which the amyloid nucleation score result was “inactive”.

In the case of NRYYPVGNYCARTWQTFTFL, the amyloid nucleation score entry was “inactive”. LLISDMGFNIVVLMTVSCFY: the amyloid nucleation score was 0.049 ± 0.29. For YNFWMRQVVMRVTVCGNDEA, the amyloid nucleation score entry is “inactive”. Under RKLFGSHS stands “inactive”; under NIISNDLSEASIYNGFVCNR, “inactive”. Consider IAFGVLVDDSDCCIDTYEEE, for which the amyloid nucleation score result is “inactive”. In the case of VAFGWDLFFNVLNLHCNVSN it was 1.89 ± 0.069. Take DREST: the amyloid nucleation score result was “inactive”. In the case of VISMRVTGVVHRFWNEVYRD it was 1.22 ± 0.1; in that of WYMCLGSLMSIVF, “inactive”; in that of CLKVSTKCFW, 0.097 ± 0.52. Under LLMKMHDAIAG stands “inactive”; under SFGILVYIRTAMPCTNIANY, “inactive”; under PGEHCWRRFLT, “inactive”. In the case of FKYLWADREVNVGQKHSVIG it was -0.174 ± 0.7; in that of NIIFRTW, “inactive”. Turning to QFGSWD, the amyloid nucleation score entry was “inactive”. Consider FPFLSSSSDSSEMFILKLFD, for which the amyloid nucleation score entry was “inactive”. For TGYWRIFSCSCLIVCVRLSV, the amyloid nucleation score result is “inactive”.

Regarding PTSFYPVQRPPRFCAGHFRS, the amyloid nucleation score result was “inactive”.

As to AYAIGHEDCEVYQLLVKLLG, the amyloid nucleation score entry was “inactive”. In the case of GSEQSVEDGFAWMKDTYFCL it was “inactive”; in that of TTMWFLWEVSGYCHKCN, “inactive”; in that of FDLRSWCM, “inactive”.

Regarding FMEHLLYE, the amyloid nucleation score result is “inactive”. Turning to SITFGFESFDVVLGNM, the amyloid nucleation score result is “inactive”. Under KWFMVA stands “inactive”; under SRGTRSK, “inactive”. Under NPRVYNMIQPAYVNWSMDVT stands “inactive”; under LTVLFTVCWVGTRAYGLIGG, “inactive”.

On to TARDESSGV, for which the amyloid nucleation score entry is “inactive”. Consider KVCIHSIEIV, for which the amyloid nucleation score entry is “inactive”.

LPRLFVVDYPSQ: the amyloid nucleation score entry was “inactive”. In turn, NLSLGQFIKAAVKFVHKPRK displayed an amyloid nucleation score of 1.34 ± 0.14. In the case of GSLFVI, the amyloid nucleation score result is “inactive”.

RSCSCLSRDKYNYLLIDSLV: the amyloid nucleation score result is “inactive”. In the case of GARLAVW it was “inactive”.

RDRQFSSSDVPGCEVTGRTD came in with an amyloid nucleation score of 1.04 ± 0.12. Under FRWNNCGSMVRISTPSYSFL stands “inactive”; under DNRSL, -0.501 ± 0.66.

Take HYKKYITPVQRVGCADPSHC: the amyloid nucleation score entry was “inactive”. Take KNQYSNSRLWYGALECHAPG: the amyloid nucleation score entry is “inactive”. Under LLKLRIQIKVWTS stands “inactive”; under AIRFVNPMFSFWVSNWNYAG, “inactive”. As to GVLASIKELH, the amyloid nucleation score result is “inactive”. Under SSVKGTYIFIYDVVMLR stands “inactive”.

Consider FPIWLLDCKEDCVLSDVAAS, for which the amyloid nucleation score entry was “inactive”. In the case of MGWALIGSQSPYVCHNMFVR it was “inactive”; in that of RFTSVILNTSDLSKLRMGTE, 0.437 ± 0.31; in that of LAIYTVRSQFKVMCGVQSIR, 0.85 ± 0.16. With GSVRNSDKKWVPIVVYIPLQ, the amyloid nucleation score entry was “inactive”. Consider IFPNLACSFRFCTRPYRSSM, for which the amyloid nucleation score turned out to be 0.571 ± 0.25.

With YRNSICHNREKAWHGSNKNR, the amyloid nucleation score result was “inactive”. Under VFVPVYPEFFVRSG stands “inactive”. On to GFYVLMISVTLMDSQTPLR, for which the amyloid nucleation score came out at 1.65 ± 0.11.
